Several values for one entry are separate records, joined by “and”; a condition that tells them apart may be missing. Equal values may be shown once.

Data on 2 molecules can be found in patent US20220119534A1 (DRAGONFLY THERAPEUTICS, published 2022).

Test [1] has as its target T1, human CLEC12A expressed on cells (human, UniProt Q5QGZ9 1-265).
T1 construct: Transduced isogenic cells or endogenous expression on AML cells; also called RMA-hCLEC12A; Ba/F3-hCLEC12A
T1 sequence: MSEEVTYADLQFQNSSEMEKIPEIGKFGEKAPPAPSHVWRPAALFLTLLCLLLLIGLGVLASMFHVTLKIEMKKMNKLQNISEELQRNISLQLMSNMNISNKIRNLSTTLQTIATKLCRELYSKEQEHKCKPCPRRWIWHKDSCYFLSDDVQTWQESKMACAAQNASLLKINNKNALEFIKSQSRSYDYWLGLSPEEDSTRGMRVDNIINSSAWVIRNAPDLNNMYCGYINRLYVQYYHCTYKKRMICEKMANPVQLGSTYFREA
Nature of the test: flow cytometry (gMFI) on CLEC12A+ PL-21 AML cells. A general note: Flow cytometry measures light scatter and fluorescence of single cells or particles in a stream.

Test [2] addresses T2, recombinant human CLEC12A-His (human, UniProt Q5QGZ9 65-265).
T2 construct: also called hCLEC12A-His; hCLEC12A
T2 sequence: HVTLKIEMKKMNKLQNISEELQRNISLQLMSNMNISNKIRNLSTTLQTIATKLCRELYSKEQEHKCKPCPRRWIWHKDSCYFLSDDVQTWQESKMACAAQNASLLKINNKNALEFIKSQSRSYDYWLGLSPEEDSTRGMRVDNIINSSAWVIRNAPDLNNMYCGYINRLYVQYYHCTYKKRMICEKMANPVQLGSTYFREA
Kind of test: SPR. Background: SPR reads the build-up and loss of mass on a sensor chip optically.

Test [3] has as its target T3, recombinant human CD16a F158 (human, UniProt P08637 17-208).
T3 construct: also called FcγRIIIa F158
Kind of test: SPR 25C, steady state, average.

The target in another test is T4, recombinant human CD32b (human, UniProt P31994 46-217, limits assumed, biotinylated).
T4 construct: also called FcγRIIb
T4 sequence (looked up): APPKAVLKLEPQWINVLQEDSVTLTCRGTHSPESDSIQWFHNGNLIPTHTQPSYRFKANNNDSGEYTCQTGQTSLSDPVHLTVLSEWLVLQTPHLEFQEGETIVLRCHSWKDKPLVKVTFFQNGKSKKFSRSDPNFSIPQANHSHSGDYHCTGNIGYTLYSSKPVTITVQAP
Nature of the test: SPR 25C, steady state, average.

Test [4] deals with T5, recombinant cynomolgus CD16 (cynomolgus monkey, UniProt Q8SPW2 17-208, biotinylated).
T5 construct: also called cFcγRIII; cyno CD16
Nature of the test: SPR 25C, steady state, average.
Source text: Human and cyno CD64, high and low affinity alleles of CD16a (V158 and F158, respectively), two alleles of CD32a (H131 and R131), CD16b, CD32b and cynomolgus CD16 were captured via biotin on a primed Biacore chip, prepared according to the manufacturer's instructions.

A further test deals with T6, recombinant human FcRn (human, UniProt P55899 24-297; P61769 21-119).
T6 construct: also called hFcRn
Kind of test: SPR 25C, pH 6.0, steady state, average; pH 6.0; average of four replicates.

Test [5] concerns the target T7, Human CD16b (human, UniProt O75015 17-200, limits assumed, biotinylated).
T7 construct: Bought recombinant receptor; also called hFcγRIIIb
Nature of the test: SPR, steady state fit; average for AB0192.

Test [6] addresses T8, Human CD16a V158 (human, UniProt P08637 17-208, biotinylated).
T8 construct: Bought recombinant receptor; also called hCD16a (V158); hFcγRIIIa V158
Kind of test: SPR, hCD16a V158 captured, kinetic fit.

The target in test [7] is T7, Human CD16b. Kind of test: SPR, steady state fit.
Test [8] has as its target T9, mFc-hNKG2D (human, UniProt P26718 73-216).
T9 construct: extracellular domain; Recombinant mFc-tagged NKG2D dimer, made in house; also called human NKG2D; not shown: mouse Fc tag
T9 sequence (looked up): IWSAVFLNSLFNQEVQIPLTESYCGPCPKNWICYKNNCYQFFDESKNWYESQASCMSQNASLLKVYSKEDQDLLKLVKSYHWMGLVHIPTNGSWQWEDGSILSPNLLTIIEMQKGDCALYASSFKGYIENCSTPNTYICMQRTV
Kind of test: SPR, 37 C, mFc-hNKG2D captured, steady state fit.

Test [9] concerns the target T9, mFc-hNKG2D. Kind of test: SPR, 37 C, mFc-hNKG2D captured, 1:1 kinetic fit; average.
Source text: NKG2D is a dimer in nature, therefore recombinant mFc-tagged NKG2D dimer was used for this experiment. […] Two different fits were utilized to obtain the equilibrium affinity data: steady state affinity fit and kinetic fit.
The target of test [10] is T8, Human CD16a V158. Kind of test: SPR; control sample (forced oxidation study).
The target in another test is T10, Human CLEC12A-His (human, UniProt Q5QGZ9 65-265).
T10 construct: Recombinant soluble protein made in house; also called hCLEC12A-His; hCLEC12A; not shown: His tag
T10 sequence: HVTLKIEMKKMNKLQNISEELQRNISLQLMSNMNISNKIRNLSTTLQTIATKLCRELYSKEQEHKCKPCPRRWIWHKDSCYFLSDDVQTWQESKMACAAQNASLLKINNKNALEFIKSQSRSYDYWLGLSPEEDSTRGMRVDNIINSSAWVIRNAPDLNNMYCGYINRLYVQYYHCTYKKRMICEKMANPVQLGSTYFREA
Kind of test: SPR; control sample (forced oxidation study).

Test [11] concerns the target T9, mFc-hNKG2D. Kind of test: SPR; control sample (forced oxidation study).

T8 sequence (P08637 17-208 F176V limits assumed): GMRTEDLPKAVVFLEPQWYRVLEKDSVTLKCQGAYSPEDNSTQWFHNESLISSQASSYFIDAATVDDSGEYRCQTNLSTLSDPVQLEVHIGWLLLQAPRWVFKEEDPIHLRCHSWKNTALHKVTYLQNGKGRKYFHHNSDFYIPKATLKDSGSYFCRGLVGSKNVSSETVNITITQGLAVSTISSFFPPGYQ
T7 sequence (O75015 17-200 limits assumed): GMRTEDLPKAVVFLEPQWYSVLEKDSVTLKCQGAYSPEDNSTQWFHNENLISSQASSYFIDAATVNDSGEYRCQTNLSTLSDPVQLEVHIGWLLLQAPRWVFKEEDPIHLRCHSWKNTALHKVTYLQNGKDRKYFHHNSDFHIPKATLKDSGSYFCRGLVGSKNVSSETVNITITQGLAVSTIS
T6 sequence (P55899 24-297 limits assumed, chain 1 of 2): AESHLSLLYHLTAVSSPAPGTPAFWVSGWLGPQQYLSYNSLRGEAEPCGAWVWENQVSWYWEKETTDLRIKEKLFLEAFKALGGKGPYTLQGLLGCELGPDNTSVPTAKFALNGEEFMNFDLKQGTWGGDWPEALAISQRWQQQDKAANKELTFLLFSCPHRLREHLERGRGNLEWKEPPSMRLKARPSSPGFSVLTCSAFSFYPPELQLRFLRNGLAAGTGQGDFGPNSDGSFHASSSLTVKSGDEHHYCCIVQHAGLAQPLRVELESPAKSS
T6 sequence (P61769 21-119 limits assumed, chain 2 of 2): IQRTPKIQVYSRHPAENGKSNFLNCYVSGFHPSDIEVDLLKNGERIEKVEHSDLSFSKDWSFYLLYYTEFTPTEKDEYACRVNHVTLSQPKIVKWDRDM
T3 sequence (P08637 17-208 limits assumed): as the sequence (P08637 17-208 F176V limits assumed) above, with V160F counted along it
T5 sequence (Q8SPW2 17-208 limits assumed): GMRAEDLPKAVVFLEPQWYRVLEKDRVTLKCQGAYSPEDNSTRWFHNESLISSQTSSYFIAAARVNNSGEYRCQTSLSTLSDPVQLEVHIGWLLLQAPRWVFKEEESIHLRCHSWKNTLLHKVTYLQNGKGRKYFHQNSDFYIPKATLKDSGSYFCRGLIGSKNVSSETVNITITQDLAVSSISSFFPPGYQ

B1: F3'-1602 TriNKET (other)
chain: QLQLQESGPGLVKPSETLSLTCTVSGFSLTNYGLHWIRQPPGKCLEWIGVIWSGGKTDYNPSLKSRVTISKDTSKNQFSLKLSSVQAADTAVYYCAKYDYDDSLDYWGQGTLVTVSSGGGGSGGGGSGGGGSGGGGSDIQMTQSPSSLSASVGDRVTITCHASQNINFWLSWYQQKPGKAPKLLIYEASNLHTGVPSRFSGSGSGTRFTLTISSLQPEDIATYYCQQSHSYPLTFGCGTKLEIKGSDKTHTCPPCPAPELLGGPSVFLFPPKPKDTLMISRTPEVTCVVVDVSHEDPEVKFNWYVDGVEVHNAKTKPREEQYNSTYRVVSVLTVLHQDWLNGKEYKCKVSNKALPAPIEKTISKAKGQPREPRVYTLPPCRDELTKNQVSLTCLVKGFYPSDIAVEWESNGQPENNYKTTPPVLVSDGSFTLYSKLTVDKSRWQQGNVFSCSVMHEALHNHYTQKSLSLSPG
heavy: EVQLVESGGGLVKPGGSLRLSCAASGFTFSSYSMNWVRQAPGKGLEWVSSISSSSSYIYYADSVKGRFTISRDNAKNSLYLQMNSLRAEDTAVYYCARGAPIGAAAGWFDPWGQGTLVTVSSASTKGPSVFPLAPSSKSTSGGTAALGCLVKDYFPEPVTVSWNSGALTSGVHTFPAVLQSSGLYSLSSVVTVPSSSLGTQTYICNVNHKPSNTKVDKKVEPKSCDKTHTCPPCPAPELLGGPSVFLFPPKPKDTLMISRTPEVTCVVVDVSHEDPEVKFNWYVDGVEVHNAKTKPREEQYNSTYRVVSVLTVLHQDWLNGKEYKCKVSNKALPAPIEKTISKAKGQPREPQVCTLPPSRDELTENQVSLTCLVKGFYPSDIAVEWESNGQPENNYKTTPPVLDSDGSFFLYSWLTVDKSRWQQGNVFSCSVMHEALHNHYTQKSLSLSPG
light: DIQMTQSPSSVSASVGDRVTITCRASQGISSWLAWYQQKPGKAPKLLIYAASSLQSGVPSRFSGSGSGTDFTLTISSLQPEDFATYYCQQGVSFPRTFGGGTKVEIKRTVAAPSVFIFPPSDEQLKSGTASVVCLLNNFYPREAKVQWKVDNALQSGNSQESVTEQDSKDSTYSLSSTLTLSKADYEKHKVYACEVTHQGLSSPVTKSFNRGEC
notes: CLEC12A scFv-Fc, NKG2D A49MI Fab-Fc, human IgG1 Fc; also called AB0237
What is called EC50 is the concentration giving half of the maximal effect. A lower EC50 goes with a more potent agent. In general, Kd refers to the equilibrium constant for the complex coming apart. In test [1], B1 showed an EC50 of 1.2 nM. Besides, the Kd in test [2] was 0.8 nM; in test [3], 1110 nM; with recombinant human CD32b, 6600 nM; in test [4], 306 nM; with recombinant human FcRn it was 1400 nM.

B2: AB0192 TriNKET (other)
chain: EVQLVESGGGVVQPGGSLRLSCAASGFTFNAFGMHWVRQAPGKCLEWVAFISSGSTSIYYANTVKGRFTISRDNSKNTLYLQMNSLRAEDTAVYYCARDGYPTGGAMDYWGQGTSVTVSSGGGGSGGGGSGGGGSGGGGSDIQMTQSPSSLSASVGDRVTITCKASQDIYNYLSWFQQKPGKAPKPLIYRANILVSGVPSRFSGSGSGQDYTFTISSLQPEDIATYYCLQFDAFPFTFGCGTKLEIKGSDKTHTCPPCPAPELLGGPSVFLFPPKPKDTLMISRTPEVTCVVVDVSHEDPEVKFNWYVDGVEVHNAKTKPREEQYNSTYRVVSVLTVLHQDWLNGKEYKCKVSNKALPAPIEKTISKAKGQPREPRVYTLPPCRDELTKNQVSLTCLVKGFYPSDIAVEWESNGQPENNYKTTPPVLVSDGSFTLYSKLTVDKSRWQQGNVFSCSVMHEALHNHYTQKSLSLSPG
heavy: EVQLVESGGGLVKPGGSLRLSCAASGFTFSSYSMNWVRQAPGKGLEWVSSISSSSSYIYYADSVKGRFTISRDNAKNSLYLQMNSLRAEDTAVYYCARGAPIGAAAGWFDPWGQGTLVTVSSASTKGPSVFPLAPSSKSTSGGTAALGCLVKDYFPEPVTVSWNSGALTSGVHTFPAVLQSSGLYSLSSVVTVPSSSLGTQTYICNVNHKPSNTKVDKKVEPKSCDKTHTCPPCPAPELLGGPSVFLFPPKPKDTLMISRTPEVTCVVVDVSHEDPEVKFNWYVDGVEVHNAKTKPREEQYNSTYRVVSVLTVLHQDWLNGKEYKCKVSNKALPAPIEKTISKAKGQPREPQVCTLPPSRDELTENQVSLTCLVKGFYPSDIAVEWESNGQPENNYKTTPPVLDSDGSFFLYSWLTVDKSRWQQGNVFSCSVMHEALHNHYTQKSLSLSPG
light: DIQMTQSPSSVSASVGDRVTITCRASQGISSWLAWYQQKPGKAPKLLIYAASSLQSGVPSRFSGSGSGTDFTLTISSLQPEDFATYYCQQGVSFPRTFGGGTKVEIKRTVAAPSVFIFPPSDEQLKSGTASVVCLLNNFYPREAKVQWKVDNALQSGNSQESVTEQDSKDSTYSLSSTLTLSKADYEKHKVYACEVTHQGLSSPVTKSFNRGEC
notes: the condition stands under assay; also called AB0192 Lot AB0192-005
One may read the koff as the first-order rate constant of dissociation. Higher therefore signals fast dissociation. For orientation: kon means a measure of how fast the partners come together. Low values mean slower complex formation, high ones faster complex formation. Regarding B2, the Kd with Human CD16b [5] is 6000 nM; with Human CD16a V158 [6], 184 nM and 173 nM and 177 nM; with Human CD16b [7], 6800 nM and 6000 nM and 5300 nM; in the test with mFc-hNKG2D [8] it was 770 nM and 783 nM and 788 nM; in the test with Human CD16a V158 [10], 177 nM; with Human CLEC12A-His, 1.68 nM. In the test with mFc-hNKG2D [11], the Kd was determined as 598 nM. In addition, the koff in the test with Human CD16a V158 [6] was 0.019 s⁻¹ and 0.0201 s⁻¹ and 0.0206 s⁻¹; with mFc-hNKG2D [9], 0.146 s⁻¹; with Human CD16a V158 [10], 0.0202 s⁻¹; with Human CLEC12A-His, 0.00129 s⁻¹; in the test with mFc-hNKG2D [11], 0.124 s⁻¹. In addition, the kon with Human CD16a V158 [6] is 103000 M⁻¹ s⁻¹ and 116000 M⁻¹ s⁻¹; in the test with mFc-hNKG2D [9], 188000 M⁻¹ s⁻¹; in the test with Human CD16a V158 [10], 115000 M⁻¹ s⁻¹; in the test with Human CLEC12A-His, 771000 M⁻¹ s⁻¹; in the test with mFc-hNKG2D [11], 208000 M⁻¹ s⁻¹.
